# Starred links: 1 amine or outer side, 2 acyl side, 3 side chain; linkers in the order of their positions; H or OH if unused. Positions of bridges follow the written chain, without caps; N, C: chain ends. Non-standard residues stand in square brackets, D forms with d. Primed or numbered codes have the meaning given here. *: point of attachment. PyrS2″ = (S)-3-amino-1-((pent-4-en-1-yloxy)carbonyl)pyrrolidine-3-carboxylic acid (stapling residue), C=CCCCOC(=O)N1CC[C@@](N[*:1])(C(=O)[*:2])C1; B5(4) = 2,2-bis(4-pentenyl)glycine = 2-amino-2-(pent-4-en-1-yl)hept-6-enoic acid (stitching residue), C=CCCCC(CCCC=C)(N[*:1])C(=O)[*:2]; B5(5) = 2,2-bis(4-pentenyl)glycine, 2-amino-2-(pent-4-en-1-yl)hept-6-enoic acid (stitching residue), C=CCCCC(CCCC=C)(N[*:1])C(=O)[*:2]; PyrS2 = (S)-3-amino-1-((pent-4-en-1-yloxy)carbonyl)pyrrolidine-3-carboxylic acid, C=CCCCOC(=O)N1CC[C@@](N[*:1])(C(=O)[*:2])C1; Phe(3-COOH) = N[C@@H](Cc1cccc(C(=O)O)c1)C(=O)O; Phe(2-Cl) = N[C@@H](Cc1ccccc1Cl)C(=O)O; Phe(2-F) = N[C@@H](Cc1ccccc1F)C(=O)O; Bta = N[C@@H](Cc1csc2ccccc12)C(=O)O; αAllylPro = C=CC[C@@]1(C(=O)O)CCCN1; tBuAla = CC(C)(C)C[C@H](N)C(=O)O; 3Thi = N[C@@H](Cc1ccsc1)C(=O)O; Propioloyl = C#CC(=O)*; Aib = CC(C)(N)C(=O)O
# Biological target: B-cat-Halo (beta-catenin HaloTag NanoBRET construct expressed in HEK293 cells) (UniProt P35222)
# Assay: NanoBRET in HEK293 cells, Bcat-Halo / TCF4-Luc (competitor TCF4-Luc); absolute IC50
# Sequence of B-cat-Halo (beta-catenin HaloTag NanoBRET construct expressed in HEK293 cells) (P35222 whole entry): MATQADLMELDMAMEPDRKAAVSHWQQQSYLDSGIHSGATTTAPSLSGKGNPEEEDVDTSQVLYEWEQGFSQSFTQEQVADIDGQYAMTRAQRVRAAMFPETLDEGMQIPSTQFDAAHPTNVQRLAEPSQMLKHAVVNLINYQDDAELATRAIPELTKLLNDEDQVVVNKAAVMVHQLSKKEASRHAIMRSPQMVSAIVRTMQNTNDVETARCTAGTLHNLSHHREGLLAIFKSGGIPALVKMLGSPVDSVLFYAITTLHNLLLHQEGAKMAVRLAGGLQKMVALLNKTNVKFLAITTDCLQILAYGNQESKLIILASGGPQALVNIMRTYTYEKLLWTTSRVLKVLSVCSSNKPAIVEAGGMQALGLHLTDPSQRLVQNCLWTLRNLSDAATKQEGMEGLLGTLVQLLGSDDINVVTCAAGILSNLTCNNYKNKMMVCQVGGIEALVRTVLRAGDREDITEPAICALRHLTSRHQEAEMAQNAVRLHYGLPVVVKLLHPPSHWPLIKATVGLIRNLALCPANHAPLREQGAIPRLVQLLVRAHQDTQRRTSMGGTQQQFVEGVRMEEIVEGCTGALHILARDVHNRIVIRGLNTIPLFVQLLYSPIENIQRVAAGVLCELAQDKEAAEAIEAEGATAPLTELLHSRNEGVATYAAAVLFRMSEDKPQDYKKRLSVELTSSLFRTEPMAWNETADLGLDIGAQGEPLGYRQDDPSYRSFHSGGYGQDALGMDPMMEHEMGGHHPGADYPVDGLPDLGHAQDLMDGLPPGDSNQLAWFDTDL
row,IC50,Binder
1,> 20000 nM,"Ac-[αAllylPro]D[tBuAla][B5(5)]NT[Aib]AFR[PyrS2][3Thi][Bta]Q-NH2 (staple 1-4, 4-11) [I-2407]"
2,> 20000 nM,"Ac-[αAllylPro]D[tBuAla][B5(5)]NT[Aib]AFN[PyrS2″][3Thi][Bta]N-NH2 (staple 1-4, 4-11) [I-2415]"
3,50000 nM,"Ac-[αAllylPro]D[tBuAla][B5(5)]NT[Aib]AFT[PyrS2][3Thi][Bta]Q-NH2 (staple 1-4, 4-11) [I-2409]"
4,> 20000 nM,"Ac-[αAllylPro]D[tBuAla][B5(5)]NT[Aib]AFN[PyrS2″][3Thi][Bta]T-NH2 (staple 1-4, 4-11) [I-2416]"
5,> 20000 nM,"Propioloyl-[αAllylPro]D[tBuAla][B5(5)]D[Phe(3-COOH)]AAFL[PyrS2″][Phe(2-Cl)][Bta]A-NH2 (staple 1-4, 4-11) [I-2403]"
6,> 20000 nM,"Ac-[αAllylPro]D[tBuAla][B5(5)]NT[Aib]AFN[PyrS2″][3Thi][Bta]H-NH2 (staple 1-4, 4-11) [I-2414]"
7,> 20000 nM,"Ac-[αAllylPro]D[tBuAla][B5(5)]NT[Aib]AFH[PyrS2″][3Thi][Bta]Q-NH2 (staple 1-4, 4-11) [I-2410]"

# Biological target: Bcat-Halo (UniProt P35222)
# Assay: NanoBRET absolute IC50 in HEK293 cells; Bcat-Halo, competitor TCF4-Luc
# Sequence of Bcat-Halo (P35222 whole entry): as above
row,IC50,Binder
1,8600 nM,"Ac-[αAllylPro]D[tBuAla][B5(5)]DDAAFT[PyrS2″][Phe(2-Cl)][Bta][dT]-NH2 (staple 1-4, 4-11) [I-1033]"
2,11500 nM,"Ac-[αAllylPro]D[tBuAla][B5(5)]DDAAFT[PyrS2″][Phe(2-F)][Bta]Q-NH2 (staple 1-4, 4-11) [I-1021]"
3,10400 nM,"Ac-[αAllylPro]D[tBuAla][B5(5)]DDAAFS[PyrS2″][Phe(2-Cl)][Bta][dT]-NH2 (staple 1-4, 4-11) [I-1032]"
4,13700 nM,"Ac-[αAllylPro]D[tBuAla][B5(5)]DNAAFT[PyrS2″][Phe(2-F)][Bta]Q-NH2 (staple 1-4, 4-11) [I-1022]"
5,20700 nM,"Ac-[αAllylPro]D[tBuAla][B5(5)]DQAAFL[PyrS2″][3Thi][Bta]Q-NH2 (staple 1-4, 4-11) [I-1440]"
6,7100 nM,"Ac-[αAllylPro]D[tBuAla][B5(5)]DEAAFL[PyrS2″][3Thi][Bta]Q-NH2 (staple 1-4, 4-11) [I-1437]"
7,9500 nM,"Ac-[αAllylPro]D[tBuAla][B5(4)]DSAAFL[PyrS2″][3Thi][Bta]Q-NH2 (staple 1-4, 4-11) [I-1443]"

# Biological target: full-length beta-Catenin (Uniprot ID P35222) (Homo sapiens (Human)) (UniProt P35222)
# Assay: fluorescence polarization competition; displaces 5FAM-TCF4(10-53) from full-length beta-catenin
# Target sequence in this assay (P35222 2-781 limits assumed): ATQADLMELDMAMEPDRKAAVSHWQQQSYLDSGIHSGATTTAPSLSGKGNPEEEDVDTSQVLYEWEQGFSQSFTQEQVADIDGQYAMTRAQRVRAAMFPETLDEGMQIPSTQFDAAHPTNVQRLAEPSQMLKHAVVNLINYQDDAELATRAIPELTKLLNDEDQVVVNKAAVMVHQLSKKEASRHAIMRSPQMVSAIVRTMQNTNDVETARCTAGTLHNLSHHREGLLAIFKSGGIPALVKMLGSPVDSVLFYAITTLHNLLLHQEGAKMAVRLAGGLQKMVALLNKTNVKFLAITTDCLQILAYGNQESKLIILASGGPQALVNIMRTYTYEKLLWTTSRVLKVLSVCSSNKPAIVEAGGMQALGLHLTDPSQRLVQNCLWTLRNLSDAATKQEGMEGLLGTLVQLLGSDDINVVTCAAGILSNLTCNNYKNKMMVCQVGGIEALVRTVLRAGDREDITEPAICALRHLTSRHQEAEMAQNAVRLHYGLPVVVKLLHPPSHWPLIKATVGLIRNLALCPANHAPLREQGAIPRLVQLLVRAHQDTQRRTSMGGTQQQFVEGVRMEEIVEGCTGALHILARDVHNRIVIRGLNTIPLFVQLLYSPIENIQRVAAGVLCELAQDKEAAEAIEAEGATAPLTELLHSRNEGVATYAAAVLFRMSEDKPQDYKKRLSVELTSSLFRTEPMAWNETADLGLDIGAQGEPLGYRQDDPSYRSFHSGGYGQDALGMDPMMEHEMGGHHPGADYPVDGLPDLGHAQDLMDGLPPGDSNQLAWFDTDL
row,EC50,Binder
1,5 nM,"Ac-[αAllylPro]D[tBuAla][B5(5)]DDAAFT[PyrS2″][Phe(2-F)][Bta]Q-NH2 (staple 1-4, 4-11) [I-1021]"
2,33 nM,"Ac-[αAllylPro]D[tBuAla][B5(5)]DNAAFT[PyrS2″][Phe(2-F)][Bta]Q-NH2 (staple 1-4, 4-11) [I-1022]"

# Biological target: Bcat-Halo (UniProt P35222)
# Assay: NanoBRET Abs IC50, Bcat-Halo/TCF4-Luc in HEK293 cells
row,IC50,Binder
1,11500 nM,"Ac-[αAllylPro]D[tBuAla][B5(5)]DDAAFT[PyrS2″][Phe(2-F)][Bta]Q-NH2 (staple 1-4, 4-11) [I-1021]"

# Biological target: full-length beta-Catenin (Uniprot ID P35222) (Homo sapiens (Human)) (UniProt P35222)
# Assay: fluorescence polarization competition; full-length beta-catenin, competitor 5FAM-TCF4(10-53) probe
row,IC50,Binder
1,138 nM,"Ac-[αAllylPro]D[tBuAla][B5(5)]NT[Aib]AFR[PyrS2][3Thi][Bta]Q-NH2 (staple 1-4, 4-11) [I-2407]"
2,147 nM,"Ac-[αAllylPro]D[tBuAla][B5(5)]NT[Aib]AFN[PyrS2″][3Thi][Bta]N-NH2 (staple 1-4, 4-11) [I-2415]"
3,26 nM,"Ac-[αAllylPro]D[tBuAla][B5(5)]DQAAFL[PyrS2″][3Thi][Bta]Q-NH2 (staple 1-4, 4-11) [I-1440]"
4,397 nM,"Ac-[αAllylPro]D[tBuAla][B5(5)]NT[Aib]AFT[PyrS2][3Thi][Bta]Q-NH2 (staple 1-4, 4-11) [I-2409]"
5,133 nM,"Ac-[αAllylPro]D[tBuAla][B5(5)]NT[Aib]AFN[PyrS2″][3Thi][Bta]T-NH2 (staple 1-4, 4-11) [I-2416]"
6,7 nM,"Ac-[αAllylPro]D[tBuAla][B5(5)]DEAAFL[PyrS2″][3Thi][Bta]Q-NH2 (staple 1-4, 4-11) [I-1437]"
7,24 nM,"Ac-[αAllylPro]D[tBuAla][B5(4)]DSAAFL[PyrS2″][3Thi][Bta]Q-NH2 (staple 1-4, 4-11) [I-1443]"
8,12 nM,"Propioloyl-[αAllylPro]D[tBuAla][B5(5)]D[Phe(3-COOH)]AAFL[PyrS2″][Phe(2-Cl)][Bta]A-NH2 (staple 1-4, 4-11) [I-2403]"
9,7 nM,"Ac-[αAllylPro]D[tBuAla][B5(5)]NT[Aib]AFN[PyrS2″][3Thi][Bta]H-NH2 (staple 1-4, 4-11) [I-2414]"
10,304 nM,"Ac-[αAllylPro]D[tBuAla][B5(5)]NT[Aib]AFH[PyrS2″][3Thi][Bta]Q-NH2 (staple 1-4, 4-11) [I-2410]"

# Biological target: beta-catenin (Homo sapiens (Human)) (UniProt P35222)
# Assay: fluorescence polarization competition; full-length beta-catenin with 5FAM-TCF4(10-53) probe as competitor
# Sequence of beta-catenin (Homo sapiens (Human)) (P35222 whole entry): as the sequence (P35222 whole entry) above
row,EC50,Binder
1,26 nM,"Ac-[αAllylPro]D[tBuAla][B5(5)]DQAAFL[PyrS2″][3Thi][Bta]Q-NH2 (staple 1-4, 4-11) [I-1440]"
2,7 nM,"Ac-[αAllylPro]D[tBuAla][B5(5)]DEAAFL[PyrS2″][3Thi][Bta]Q-NH2 (staple 1-4, 4-11) [I-1437]"
3,24 nM,"Ac-[αAllylPro]D[tBuAla][B5(4)]DSAAFL[PyrS2″][3Thi][Bta]Q-NH2 (staple 1-4, 4-11) [I-1443]"

# Biological target: full-length beta-Catenin (Uniprot ID P35222) (Homo sapiens (Human)) (UniProt P35222)
# Assay: fluorescence polarization competition; full-length beta-catenin, competitor 5FAM-TCF4 10-53
# Target sequence in this assay (P35222 whole entry, one chain of several): as the sequence (P35222 whole entry) above
row,IC50,Binder
1,10 nM,"Ac-[αAllylPro]D[tBuAla][B5(5)]DDAAFT[PyrS2″][Phe(2-Cl)][Bta][dT]-NH2 (staple 1-4, 4-11) [I-1033]"
2,5 nM,"Ac-[αAllylPro]D[tBuAla][B5(5)]DDAAFT[PyrS2″][Phe(2-F)][Bta]Q-NH2 (staple 1-4, 4-11) [I-1021]"
3,15 nM,"Ac-[αAllylPro]D[tBuAla][B5(5)]DDAAFS[PyrS2″][Phe(2-Cl)][Bta][dT]-NH2 (staple 1-4, 4-11) [I-1032]"
4,33 nM,"Ac-[αAllylPro]D[tBuAla][B5(5)]DNAAFT[PyrS2″][Phe(2-F)][Bta]Q-NH2 (staple 1-4, 4-11) [I-1022]"

# Biological target: full-length beta-Catenin (Uniprot ID P35222) (Homo sapiens (Human)) (UniProt P35222)
# Assay: fluorescence polarization competition; 10 nM full-length beta-catenin + 10 nM 5FAM-TCF4 10-53 as competitor probe
# Target sequence in this assay (P35222 2-781 limits assumed): as the sequence (P35222 2-781 limits assumed) above
row,EC50,Binder
1,10 nM,"Ac-[αAllylPro]D[tBuAla][B5(5)]DDAAFT[PyrS2″][Phe(2-Cl)][Bta][dT]-NH2 (staple 1-4, 4-11) [I-1033]"
2,15 nM,"Ac-[αAllylPro]D[tBuAla][B5(5)]DDAAFS[PyrS2″][Phe(2-Cl)][Bta][dT]-NH2 (staple 1-4, 4-11) [I-1032]"

# — patent US20240116985A1, “STAPLED PEPTIDES AND METHODS THEREOF” (priority 2020, published 2024)
